What was measured:
[1] = biological target: SauCas9 (N580A/C946A) (Staphylococcus aureus) (UniProt J7RUA5); assay: crystal structure; SauCas9 (N580A/C946A)-sgRNA-AcrIIA14ct-dsDNA quaternary complex, mixed at 1:1.2:5:2, purified by SEC; hanging drop, 20°C; 2.22 Å
[2] = biological target: Staphylococcus aureus Cas9 (SauCas9), wild type (Staphylococcus aureus) (UniProt J7RUA5); assay: BLI; biotinylated SauCas9 protein (or SauCas9-sgRNA complex) loaded on streptavidin biosensors for 60 s; 20°C; 20 mM HEPES pH 7.55, 100 mM KCl, 10 mM MgCl2, 1 mM DTT, 5% glycerol; four or five concentrations of sample
[3] = test system: SauCas9 (Staphylococcus aureus); assay: BLI; conditions: 10 mM Mg2+, BLI: 20 mM HEPES pH 7.55, 100 mM KCl, 10 mM MgCl2, 1 mM DTT, 5% (w/v) glycerol, 20 C, complex for crystals: 10 mM Tris-HCl pH 8.0, 300 mM NaCl, 3 mM DTT

AcrIIA14ct (C-terminal domain of AcrIIA14, residues 60-159) (domain or fragment)
stoichiometry N (AcrIIA14ct per SauCas9) [1]: 1 | Kd [2]: 0.00558 nM

AcrIIA14ct mutant H56K (domain or fragment)
Kd [2]: 58 nM

SauCas9 sgRNA (BLI)
Kd ([3]; biotinylated SauCas9 on streptavidin sensor): 0.473 nM

SauCas9 sgRNA / target DNA (BLI)
Kd ([3]; target DNA as analyte, SauCas9-sgRNA complex presumably immobilized): 0.535 nM

Source: article PMC8216286
